Reference: patent US20140017242A1, “ANTI-BRADYKININ B2 RECEPTOR (BKB2R) MONOCLONAL ANTIBODY” (Diamedica, Inc., priority 2010, published 2014)
Where no end group is shown, it is not given here.

Experiments:
BKB2 receptor [1] = target: T1, BKB2 receptor (Homo sapiens, UniProt P30411); settings: BKB2 receptor agonist; cited from earlier work
T1 sequence (P30411 1-391): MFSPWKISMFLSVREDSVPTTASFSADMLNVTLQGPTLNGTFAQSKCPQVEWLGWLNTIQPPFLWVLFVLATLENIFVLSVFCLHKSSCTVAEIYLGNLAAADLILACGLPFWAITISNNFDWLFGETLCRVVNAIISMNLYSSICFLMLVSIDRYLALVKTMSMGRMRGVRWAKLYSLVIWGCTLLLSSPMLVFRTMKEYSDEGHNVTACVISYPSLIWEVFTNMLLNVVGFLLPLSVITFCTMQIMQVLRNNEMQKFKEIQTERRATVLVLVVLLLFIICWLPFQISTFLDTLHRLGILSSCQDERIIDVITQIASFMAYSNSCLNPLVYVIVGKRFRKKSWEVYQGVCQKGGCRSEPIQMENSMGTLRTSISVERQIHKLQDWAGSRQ

[2] = cited from earlier work
BKB2 receptor [3] = target: T1, BKB2 receptor; assay: Intracellular calcium release in CHO-K1/B2/Gα15 cells (FLIPR Calcium 4); format: cell-based; set-up: expressed in transfected cells; settings: bradykinin positive control (10 uM in the method); mean+/−SD, n=2
Protocol: A stable CHO cell line expressing the human BKB2 receptor (CHO-K1/B2/Gα15) was used for the screening. The antibody was diluted to five different concentrations, from 0.5 mg/ml, via three-fold dilution increments, and screened on duplicate cell samples.
Expression and functional activity of the human BKB2 receptor in the CHO-K1/B2/Gα15 cell line were validated by exposure to the positive control, bradykinin.
To perform the assay, CHO-K1/B2/Gα15 cells were seeded in wells of a 384-well black-wall, clear-bottom plate at a density of 20,000 cells per well in 20 μL of growth medium 20 hours prior to the day of experiment, and maintained at 37° C./5% CO2. 20 μL of dye-loading solution (FLIPR™ Calcium 4 assay kit, Molecular Devices, Sunnyvale, Calif.) was added into each well and the plate was placed into a 37° C. incubator for 60 minutes, followed by 15 minutes at room temperature. The total reading time was 120 sec. After a 20-second reading to establish the baseline, the antibody or agonist were added to selected wells and the fluorescence signal was captured for another 100 seconds (21 s to 120 s). Readings from wells containing cells stimulated with assay buffer (0.03% Na3N PBS) containing 1% DMSO were chosen as the background values for screening; readings from wells containing cells stimulated with the agonist bradykinin (at 10 uM) were chosen as the positive control.

BxPC-3 = assay: MTT Cell Proliferation Assay, BxPC-3; format: cell-based, human; settings: 120 hours of exposure
Text: (§1) This Example describes characterization of the cytotoxic activity of herein described anti-BKB2R monoclonal antibodies against a panel of cancer cell lines. BxPC-3 is a human adenocarcinoma cell line originally isolated from the pancreas (pancreatic cancer) (ATCC # CRL-1687; Tan et al., Cancer Invest. 4: 15-23, 1986. PubMed: 3754176). MV-4-11 is a human biphenotypic B myelomonocytic leukemia (mixed-lineage leukemia, MLL-AF4) cell line originally isolated from the peripheral blood (ATCC # CRL-959; Lange et al., Blood 70: 192-199, 1987. PubMed: 3496132). Hep G2 is a human hepatocellular carcinoma cell line isolated from the liver (liver cancer) (ATCC # HB-8065; Aden et al., Nature 282: 615-616, 1979. PubMed: 233137). RS4;11 is a human acute lymphoblastic leukemia (mixed-lineage leukemia, MLL-AF4) cell line isolated from the bone marrow (ATTC # CRL-1873) Stong et al., Blood 65: 21-31, 1985. PubMed: 3917311). HT-29 is a human colorectal adenocarcinoma (ATTC # HTB-38) cell line isolated from the colon (colon cancer). Fogh et al., J. Natl. Cancer Inst. 58: 209-214, 1977. PubMed: 833871). NUGC-4 is a human stomach carcinoma isolated from the stomach paragastiric lymph node (JCRB # JCRB0834; Akiyama et al., Jpn. J. Surg., 18: 438-446, 1988). […]
(§2) The anti-proliferative activity of test compounds against the indicated cell lines was evaluated in vitro using the ATCC's MTT Cell Proliferation Assay (Catalog No. 30-1010K). After the 120 hour incubation with drug (e.g., anti-BKB2R mAb or cisplatin), cell proliferation was measured by addition of MTT reagent to each well and incubation for an additional 4 hrs. […] Optical absorbance (570 nm) of the test wells was measured and then quantitated relative to control wells that received no drug. Results were expressed as percent inhibition versus compound concentration and graphed, as shown in FIGS. 19-25, for cell lines BxPC-3, MV-4;11, HepG2, RS-4;11, HT-29, NUGC-4, and PC-3, respectively.

Hep G2 = assay: MTT Cell Proliferation Assay, Hep G2; format: cell-based, human; settings: 120 hours of exposure
Text: as §1, §2

HT-29 = assay: MTT Cell Proliferation Assay, HT-29; format: cell-based, human; settings: 120 hours of exposure
Text: as §1, §2

NUGC-4 = assay: MTT Cell Proliferation Assay, NUGC-4; format: cell-based, human; settings: 120 hours of exposure
Text: as §1, §2

PC-3 = assay: MTT Cell Proliferation Assay, PC-3; format: cell-based, human; settings: 120 hours of exposure
Text: as §1, §2

MV-4-11 = assay: MTT Cell Proliferation Assay, MV-4-11; format: cell-based, human; settings: 120 hours of exposure
Text: as §1, §2

RS-4;11 = assay: MTT Cell Proliferation Assay, RS-4;11; format: cell-based, human; settings: 120 hours of exposure
Text: as §1, §2

[4] = target: human bradykinin B2 receptor (BKB2R) (human) (UniProt P30411); assay: cell-based or functional assay
[5] = target: T2, human BKB2R-derived epitope peptide (SEQ ID NO:73), PEG-biotin (human, also: PEG-biotin, site not given here); assay: BLI (Octet), peptide-PEG-biotin on streptavidin sensor, antibody 833 nM
T2 construct: also called immunogenic human BKB2R peptide fragment
T2 peptide: KEYSDEGHNVTAC

[6] = target: T2, human BKB2R-derived epitope peptide …; assay: BLI (Octet), peptide-PEG-biotin on streptavidin sensor, antibody 1000 nM
[7] = target: T2, human BKB2R-derived epitope peptide …; assay: BLI (Octet), peptide-PEG-biotin on streptavidin sensor, antibody 1667 nM
[8] = target: T2, human BKB2R-derived epitope peptide …; assay: BLI (Octet), peptide-PEG-biotin on streptavidin sensor, antibody 3333 nM
[9] = target: T2, human BKB2R-derived epitope peptide …; assay: BLI (Octet), peptide-PEG-biotin on streptavidin sensor, antibody 3333 nM; antibody 3333 nM row; the same constants are printed for all four ab 404 concentrations
[10] = target: T2, human BKB2R-derived epitope peptide …; assay: BLI (Octet), peptide-PEG-biotin on streptavidin sensor, antibody 250 nM
Protocol: (§3) For the Octet study, antibodies were analyzed by kinetic titration of the antibodies. Antibodies were prepared in kinetic buffer (0.001 M phosphate buffered saline (NaCl 0.0138 M; KCl-0.00027 M); pH 7.4, at 25° C., 0.1 mg/ml BSA, 0.002% Tween and 0.005% Sodium Azide) followed by 1:2 serial dilutions.
(§4) Sensor Prep: Streptavidin biosensors (FortéBio Inc, Menlo Park, Calif.) were coated by incubation in a solution containing a peptide ([…]-PEG-biotin) (Biosyn, Lewisville, Tex.) at 50 μg/ml (300 seconds/1000 rpm shaking). 96 well half-volume plates were used for testing. 90 μl of sample was plated per well. Sensors were allowed to equilibrate to baseline in kinetic buffer (60 seconds/1000 rpm). The sensors were then placed into the various antibody dilutions to allow binding (association) to the probe for 500 seconds/1000 rpm, and measurements were taken. The sensors were then moved into kinetic buffer without antibody for dissociation (500 seconds/1000 rpm), and measurements were taken. Octet system software calculated kinetic constants for on rate/off rate/affinity.
(§5) For test humanized monoclonal antibodies, the highest concentration used was 500 nM followed by 1:2 dilutions. Each concentration was tested twice. The HC and LC represented the mouse original 5F12G1 VH and VL sequences.

[11] = target: T2, human BKB2R-derived epitope peptide …; assay: BLI (Octet), peptide-PEG-biotin on streptavidin sensor, antibody 500 nM
Protocol: as §3, §4, §5

[12] = target: T2, human BKB2R-derived epitope peptide …; assay: BLI (Octet), peptide-PEG-biotin on streptavidin sensor, antibody 500 nM; antibody 500 nM (the 250 nM row r17 gives 4.41E-07 M)
Protocol: as §3, §4, §5

kallidin
Kd (BKB2 receptor [1]): ~0.89 nM
short lived, in vivo [2]: ~30 s

RPPGFSPFR [bradykinin]
percentage of activation (BKB2 receptor [3]): 93.1+/−5.7%

N.N.[Cl][Pt][Cl] [Cisplatin, cisplatin]
EC 50 Values (ng/ml) BxPC-3 (BxPC-3): 204 ng/mL
EC50 (BxPC-3; read-out: EC 50 BxPC-3, value in brackets): 700 nM
EC 50 Values (ng/ml) Hep G2 (Hep G2): 239 ng/mL
EC50 (Hep G2; read-out: EC 50 Hep G2, value in brackets): 800 nM
EC 50 Values (ng/ml) HT-29 (HT-29): 698 ng/mL
EC50 (HT-29; read-out: EC 50 HT-29, value in brackets): 2300 nM
EC 50 Values (ng/ml) NUGC-4 (NUGC-4): 1200 ng/mL
EC50 (NUGC-4; read-out: EC 50 NUGC-4, value in brackets): 4100 nM
EC 50 Values (ng/ml) PC-3 (PC-3): 753 ng/mL
EC50 (PC-3; read-out: EC 50 PC-3, value in brackets): 2500 nM
EC 50 Values (ng/ml) MV-4-11 (MV-4-11): 347 ng/mL
EC50 (MV-4-11; read-out: EC 50 MV-4-11, value in brackets): 1200 nM
EC 50 Values (ng/ml) RS-4;11 (RS-4;11): 344 ng/mL
EC50 (RS-4;11; read-out: EC 50 RS-4;11, value in brackets): 1100 nM

bradykinin (from UniProt P01042 381-389) (peptide)
ED50 (intracellular calcium release, FLIPR, CHO-K1/B2/Gα15 cells) [4]: 0.95 nm/l
percentage of activation (intracellular calcium release, FLIPR, CHO-K1/B2/Gα15 cells) [4]: 93.1%

B1: murine monoclonal anti-BKB2R antibody 5F12G1 (antibody, IgG2b, V domains shown)
VH: EVKLEESGGGLVQPGGSMKLSCVVSGFTFSDYWMSWVRHSPEMGLEWVAEIRLKSDNYATHYAESVKGRFTISRDDSKSRLYLQINSLRGEDTGIYYCTRDYYAMEYWGQGTSVTVSS
VL: DVVMTQTPLSLPVSLGDQASISCRSSQTIVHSNGKTYLEWYLQKPGQSPKLLIYKVSNRFSGVPDRFSGSGSGTEFTLKISRVETEDLGVYYCFQASHVPYTFGGGTKLEIK
notes: also called F512G1
Kd [5]: 462 nM
koff [5]: 0.00109 s⁻¹
kon [5]: 2350 M⁻¹ s⁻¹
Kd [6]: 462 nM
koff [6]: 0.00109 s⁻¹
kon [6]: 2350 M⁻¹ s⁻¹
Kd [7]: 462 nM
koff [7]: 0.00109 s⁻¹
kon [7]: 2350 M⁻¹ s⁻¹
koff [8]: 0.00109 s⁻¹
kon [8]: 2350 M⁻¹ s⁻¹
Kd [9]: 462 nM

B2: humanized anti-BKB2R antibody L1/H1 (antibody, human IgG2, kappa, V domains shown)
VH: EVQLVESGGGLVQPGGSLRLSCAASGFTFSDYWMSWVRQAPGKGLEWVAEIRLKSDNYATHYAESVKGRFTISRDNAKNSLYLQMNSLRAEDTAVYYCTRDYYAMEYWGQGTLVTVSS
VL: DIVMTQSPLSLPVTPGEPASISCRSSQTIVHSNGKTYLEWYLQKPGQSPQLLIYKVSNRFSGVPDRFSGSGSGTDFTLKISRVEAEDVGVYYCFQASHVPYTFGQGTKLEIKR
notes: also called H1/L1
Kd [10]: 441 nM
Max Response [10]: 0.286
koff [10]: 0.701 s⁻¹
kon [10]: 1.59e+06 M⁻¹ s⁻¹
Max Response [11]: 0.216
koff [11]: 0.942 s⁻¹
kon [11]: 404000 M⁻¹ s⁻¹
Kd [12]: 2330 nM
